The supplement of paper PMC10126150
± gives the standard deviation of the averaged measurements.

These sequences were tested on ATP (assay: switch fluorescence ratio, 500 uM ATP over buffer (Cy3 cluster intensity, sum of 5 cycles each) (fold (ratio)); higher = stronger signal-on switching upon ATP binding; sequences stand for … in TCGTCGGCAGCGTCAGATGTGTATAAGAGACAGTTTTTTTTTTTTTTTTTTTTTTTTT…TC). Settings: aptamer strand: ATP DNA aptamer (quencher-CACCTGGGGGAGTATTGCGGAGGAAGG + anchor), 100 nM annealed; ATP concentration: 500 uM.
Method in brief: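 After annealing to 100 nM quencher-labelled ATP aptamer, Cy3-labelled switching-strand clusters on a modified Illumina MiSeq flow-cell were imaged in selection buffer. A second image followed after 15 min with 500 uM ATP at 22 °C, and five such buffer/ATP cycles were done, each separated by NaOH stripping and re-annealing. The fluorescence ratio, averaged per switch-domain sequence, is summed target-cycle over summed buffer-cycle Cy3 intensity per cluster, with clusters outside 100-1000 RFU excluded.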
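Further: ATP exposure 15 min at 22 °C before imaging.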

| Sequence | switch fluorescence ratio |
| --- | --- |
| CCGTTTTTAC | 4.11 ± 0.83 |
| CCGTTTTTAT | 1.01 ± 0.018 |
| CCTAAAAAGG | 1.26 ± 0.29 |
| CCTAAAGGCT | 1.0151 ± 4.7e-05 |
| CCTAAGTGTT | 1.06 ± 0.069 |
| CCTAATCGGT | 1.006 ± 0.0095 |
| CCTAATGCCG | 0.996 ± 0.04 |
| CCTAGGGAAG | 0.9972 ± 0.0046 |
| CCTAGTAGCG | 1.01 ± 0.014 |
| CCTAGTTGGC | 1.03 ± 0.083 |
| CCTATAATAG | 1.17 ± 0.064 |
| CCTATAATAT | 1.05 ± 0.024 |
| CCTCAAAAAA | 2.98 ± 0.2 |
| CCTCATGACA | 1.263 ± 0.0096 |
| CCTCATGGCA | 2.11 ± 0.17 |
| CCTCATTGGT | 1.026 ± 0.0093 |
| CCTCGACAGC | 3.43 ± 0.42 |
| CCTCGCGGGG | 1.08 ± 0.032 |
| CCTCGGTATG | 1.24 ± 0.025 |
| CCTCGTGTTT | 1.08 ± 0.0061 |
| CCTCGTTGAA | 1.22 ± 0.026 |
| CCTCTACG | 1.41 ± 0.044 |
| CCTGAGAACA | 1.02 ± 0.031 |
| CCTGAGACAC | 1.08 ± 0.052 |
| CCTGAGGGAT | 1.86 ± 1.4 |

| Sequence | switch fluorescence ratio |
| --- | --- |
| CCTGAGTCTG | 1.57 ± 0.038 |
| CCTGCTGTCC | 1.16 ± 0.051 |
| CCTGGAAGCG | 1.08 ± 0.045 |
| CCTGGAGGGG | 1.07 ± 0.066 |
| CCTGGATCGG | 1.09 ± 0.048 |
| CCTGGCGCTT | 2.06 ± 0.86 |
| CCTGGCGGCT | 1.06 ± 0.018 |
| CCTGGGAAGG | 0.991 ± 0.025 |
| CCTGGGGCAG | 1.17 ± 0.093 |
| CCTGGGGTTT | 1.09 ± 0.15 |
| CCTGGGTACC | 1.039 ± 0.0072 |
| CCTGGGTCTA | 1.03 ± 0.023 |
| CCTGGGTTAT | 1.02 ± 0.011 |
| CCTGGTTTTG | 1.04 ± 0.028 |
| CCTGGTTTTT | 1.12 ± 0.15 |
| CCTGTAAAGA | 1.02 ± 0.019 |
| CCTGTAGTCT | 1.04 ± 0.039 |
| CCTGTAGTTG | 1.04 ± 0.037 |
| CCTGTATCTT | 1.03 ± 0.018 |
| CCTGTCAGGC | 1.04 ± 0.026 |
| CCTGTCATCC | 1.17 ± 0.023 |
| CCTGTGATAT | 1.3 ± 0.031 |
| CCTGTGCAGG | 1.11 ± 0.02 |
| CCTGTGGATC | 1.05 ± 0.042 |
| CCTGTTACTT | 0.97 ± 0.04 |

| Sequence | switch fluorescence ratio |
| --- | --- |
| CCTGTTTTAC | 1.24 ± 0.045 |
| CCTTAAGTGT | 1.04 ± 0.041 |
| CCTTAATCTT | 0.987 ± 0.026 |
| CCTTACATCG | 1.12 ± 0.044 |
| CCTTACCTGT | 1.07 ± 0.065 |
| CCTTAGATTA | 1.01 ± 0.031 |
| CCTTATCAGG | 1.04 ± 0.02 |
| CCTTCACCGT | 2.21 ± 0.14 |
| CCTTCAGCGT | 1.73 ± 0.086 |
| CCTTCCTTGT | 2.06 ± 0.031 |
| CCTTCGGAGT | 3.99 ± 2.3 |
| CCTTCTTTTT | 1.06 ± 0.12 |
| CCTTGCTGTG | 1.06 ± 0.039 |
| CCTTGTACTG | 1.07 ± 0.042 |
| CCTTGTATTT | 1.01 ± 0.018 |
| CCTTGTCGG | 1.07 ± 0.083 |
| CCTTGTGTTG | 1.01 ± 0.017 |
| CCTTTGGGCA | 1.05 ± 0.023 |
| CCTTTGGGTC | 0.98 ± 0.014 |
| CCTTTTCGTG | 1.003 ± 0.0043 |
| CCTTTTGAAC | 1.04 ± 0.028 |
| CCTTTTTCAC | 1.03 ± 0.032 |
| CCTTTTTGGG | 0.9831 ± 0.0032 |
| CGAAACGGGG | 0.983 ± 0.042 |
| CGAAACTCTG | 1 ± 0.03 |

| Sequence | switch fluorescence ratio |
| --- | --- |
| CGAAACTTGA | 1.02 ± 0.038 |
| CGAAAGAGAG | 0.9911 ± 0.0022 |
| CGAAAGGGTT | 0.9983 ± 0.0072 |
| CGAAATGGCG | 1.053 ± 0.0038 |
| CGAACGGTGG | 0.998 ± 0.056 |
| CGAACGGTTT | 0.989 ± 0.016 |
| CGAACTCCTG | 1.05 ± 0.014 |
| CGAACTCGGA | 1.012 ± 0.0076 |
| CGAAGAGGGA | 0.9864 ± 0.0081 |
| CGAAGAGGTT | 0.98936 ± 0.00044 |
| CGAAGCTAGG | 2.16 ± 0.21 |
| CGAAGCTCTG | 1.09 ± 0.013 |
| CGAAGGGAAT | 1.03 ± 0.033 |
| CGAAGGGTGT | 0.999 ± 0.024 |
| CGAAGGTTTC | 1.034 ± 0.0023 |
| CGAATAAGCG | 0.995 ± 0.023 |
| CGAATACATA | 1.1 ± 0.011 |
| CGAATAGGCT | 1.006 ± 0.0029 |
| CGAATGGCCC | 1 ± 0.012 |
| CGAATGGGGG | 1 ± 0.029 |
| CGAATTCAGG | 1.012 ± 0.0068 |
| CGAATTGTTT | 0.962 ± 0.03 |
| CGAATTTACC | 1.19 ± 0.15 |
| CGACAAGAAC | 2.94 ± 0.18 |
| CGACAGATGT | 1.01 ± 0.018 |
